# Measured values as given in PMC11703243.
# How the values were obtained:
# [1] = target: Alexa Fluor 488-labeled BAX^WT (human) (UniProt Q07812); assay: SEC
# [2] = target: BAX, recombinant human, wild type (human) (UniProt Q07812); assay: SEC
substance,measurement,setting,value
Alexa Fluor 488-labeled BAX^WT (from UniProt Q07812 1-192) (natural protein),stoichiometry N,[1],2
"BAX, recombinant human, wild type (from UniProt Q07812 1-192) (natural protein)",stoichiometry N,[2],2
